Experimental data from the supplement of paper PMC9170038.

System: MS2 coat protein
Test: apparent KD of MS2 coat protein; designed switch direction (-1 OFF switch, 1 ON switch): -1; higher = weaker reporter binding
Outline: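 Stalled E. coli RNA polymerase transcribed designed RNA switches on Illumina chips, which were then titrated with SNAP-549-labelled MS2 coat protein, doubling from 0.7 or 1.5 nM to 3 µM. Steps lasted from 0.8–1.5 h at the lowest concentration to 10–20 min at the highest. The apparent KD is each design's median over clusters of curve-fitted normalised fluorescence.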

[1] = input ligand: microRNA oligo, concentration not stated
[2] = Eterna round: R95, input ligand: FMN 200 uM
[3] = Eterna round: R95, input ligand: microRNA oligo, concentration not stated
[4] = Eterna round: R95, input ligand: none

| Sequence | apparent KD of MS2 coat protein [1] [nM] | apparent KD of MS2 coat protein (input ligand: FMN 200 uM) [nM] | apparent KD of MS2 coat protein (input ligand: none) [nM] | apparent KD of MS2 coat protein [2] [nM] | apparent KD of MS2 coat protein [3] [nM] | apparent KD of MS2 coat protein [4] [nM] |
| --- | --- | --- | --- | --- | --- | --- |
| UUGUUGUAUGUAGGAUAUGCAUAUUGUUAUUAUGCAGAAGGACAUGAGGAUCACCCAUGUAUGUUAUUAUUAUGUGUUAUGUGU [Title] (Eterna round: R96, puzzle: Exclusion NG 1) | 30.3 |  |  |  |  |  |
| UUGUUGUAUGUAGGAUAUGCGUAUUGUUAUUAUGCAGAAGGACAUGAGGAUCACCCAUGUAUAUUAUUAUUAUAUAUUAUAUAU [Title] (Eterna round: R96, puzzle: Exclusion NG 1) | 20.1 |  |  |  |  |  |
| UUGUUUUCCGCAGGAUAUGCUCCUCCAUUACUAGCAGAAGGGCGUUGAACAUGAGGAUCACCCAUGUAUGUAAUUGCUUAUUGC [JR_ExcNG1_Sub073] (Eterna round: R96, puzzle: Exclusion NG 1) | 14.8 | 19.7 | 18.9 |  |  |  |
| UUUAAACAUGAGGAUCACCCAUGUUAGGAUAUACGAAUGCAGACACACACGGAUGCAAGUAGAAGGAACCAUGC [Design #8] (Eterna round: R97, puzzle: Exclusion 1) |  | 44.1 | 44.1 |  |  |  |
| UUUAAUCGUGACAUGGGUGACAUGAGGAUCACCCAUGUCACAAGCUUCUUGCUCGUCUUAUAAUUAACCCAUGUCAC [LRO Sensor-off var1-12 mod of Stov1-13-A1 by Brourd] (Eterna round: R97, puzzle: Sensor, turn-off variant 1) |  | 18.8 | 18.3 |  |  |  |
| UUUAAUUUUUUUUUUUUACAAGCUUUUUGCUCGUCUUAUACAUGAGGAUCACCCAUGUAAAUGGGAGAUAAAUUAUC [JMF 17] (puzzle: Sensor v3, turn-off variant 2) |  |  |  | 95.9 | 52.4 | 92.3 |
| UUUAAUUUUUUUUUUUUACAAGCUUUUUGCUCGUCUUAUACAUGAGGAUCACCCAUGUAAAUGGGAGGUAAAUUAUC [JMF 71] (puzzle: Sensor v3, turn-off variant 2) |  |  |  | 80.7 | 133 | 113 |
| UUUAAUUUUUUUUUUUUACAAGCUUUUUGCUCGUCUUAUACAUGAGGAUCACCCAUGUAGAUGGAGGGUAAAUUAUC [JMF 86] (puzzle: Sensor v3, turn-off variant 2) |  |  |  | 17.4 | 27.9 | 14.5 |
| UUUAAUUUUUUUUUUUUACAAGCUUUUUGCUCGUCUUAUACAUGAGGAUCACCCAUGUAGAUGGGAGAUAAAUUAUC [JMF 20] (puzzle: Sensor v3, turn-off variant 2) |  |  |  | 33.8 | 85.3 | 40.5 |
| UUUAAUUUUUUUUUUUUACAAGCUUUUUGCUCGUCUUAUACAUGAGGAUCACCCAUGUAGAUGGGAGGUAAAUUAUC [JMF 75] (puzzle: Sensor v3, turn-off variant 2) |  |  |  | 29.1 | 160 | 25.7 |
| UUUAAUUUUUUUUUUUUACAAGCUUUUUGCUCGUCUUAUACAUGAGGAUCACCCAUGUAGGUGAGAAAUGAAUUAUC [JMF 94] (puzzle: Sensor v3, turn-off variant 2) |  |  |  | 26.5 | 152 | 29.5 |
| UUUAAUUUUUUUUUUUUACAAGCUUUUUGCUCGUCUUAUACAUGAGGAUCACCCAUGUGAAUGAGGGAUAAAUUAUC [JMF 39] (puzzle: Sensor v3, turn-off variant 2) |  |  |  | 13.5 | 14.3 | 11.9 |
| UUUAAUUUUUUUUUUUUACAAGCUUUUUGCUCGUCUUAUACAUGAGGAUCACCCAUGUGAAUGGGAAAUGAAUUAUC [JMF 96] (puzzle: Sensor v3, turn-off variant 2) |  |  |  | 112 | 268 | 132 |
| UUUAAUUUUUUUUUUUUACAAGCUUUUUGCUCGUCUUAUACAUGAGGAUCACCCAUGUGGGUAGGAGGUAAAUUAUC [JMF 72] (puzzle: Sensor v3, turn-off variant 2) |  |  |  | 32.5 | 50.4 | 35.5 |
| UUUAAUUUUUUUUUUUUACAAGCUUUUUGCUCGUCUUAUACAUGAGGAUCACCCAUGUGGGUGAAAGAUAGAUUGUC [JMF's solution 3] (puzzle: Sensor v3, turn-off variant 2) |  |  |  | 87.2 | 20.4 | 35.8 |
| UUUACAAGCUAUUGAUCCCACAUGAGGAUCACCCAUGUUGCUGCCGUGAGGUAGCUUUUAACAAUUGCUCGUCUUAU [JL TOV1 3.38] (Eterna round: R97, puzzle: Sensor, turn-off variant 1) |  | 424 | 570 |  |  |  |

| Sequence | apparent KD of MS2 coat protein [1] [nM] | apparent KD of MS2 coat protein (input ligand: FMN 200 uM) [nM] | apparent KD of MS2 coat protein (input ligand: none) [nM] | apparent KD of MS2 coat protein [2] [nM] | apparent KD of MS2 coat protein [3] [nM] | apparent KD of MS2 coat protein [4] [nM] |
| --- | --- | --- | --- | --- | --- | --- |
| UUUACAAGCUUAAGAUCCCACAUGAGGAUCACCCAUGUUGCUGCCGGUGACGGUAGCAUAACUUAUGCUCGUCUUAU [JL TOV1 3.60] (Eterna round: R97, puzzle: Sensor, turn-off variant 1) |  | 177 | 188 |  |  |  |
| UUUAGUGGUAAGGAUAUCCUUGAGAAAGAAAGAGGAGAAGGUACCACAUGAGGAUCACCCAUGUGGCUCUUUUA [jl-ex6-4.58 Nando mod] (Eterna round: R97, puzzle: Exclusion 6) |  | 32.7 | 18.2 |  |  |  |
| UUUAGUUCAGGAUAUGUAGAUUUUAACAUGAGGAUCACCCAUGUAGAUCCUGAAUUAACUACAGAAGGGAACAUUG [Exclusion 5: 2:b] (puzzle: Exclusion 5) |  |  |  | 50.1 | 18.2 | 16.5 |
| UUUAUAAUUUCAAUCUUCGCUGGCAAACUUACGCCAGCCACAUGAGGAUCACCCAUGUUUUUUGUUCGUUUUAUUCU [Xeinzarace] (puzzle: Sensor v3, turn-off variant 2) |  |  |  | 18.8 | 49.8 | 22.6 |
| UUUCAUCAUGUAGGAUAUGCGUGGCGAAGCUAUGCAGAAGGACAUGAGGAUCACCCAUGUUCUAGCGUCUGCGUACAGAUGCUA [JL ENG1 1.35] (Eterna round: R96, puzzle: Exclusion NG 1) | 45.1 | 226 | 52.4 |  |  |  |
| UUUCGGCAUGUAGGAUAUGGGUCCGAUUAGGAUUUAGAAGGACAUGAGGAUCACCCAUGUGCAUUUAAUUGGUCAUUACCUUUU [EXclNG1-LROPPY10] (Eterna round: R96, puzzle: Exclusion NG 1) | 46.5 |  |  |  |  |  |
| UUUCUACAUGUAGGAUAUGCGUGGCGAAGCUAUGCAGAAGGACAUGAGGAUCACCCAUGUUUUAGCGUCUGCGUACAGAUGCGU [JL ENG1 1.49] (Eterna round: R96, puzzle: Exclusion NG 1) | 16.2 | 60.9 | 20.6 |  |  |  |
| UUUCUGUGAGGAUAUCAGUAGUAAAUAAAUAAAAUUACUACUGAGAAGGCACAUGAGGAUCACCCAUGUUCCUU [salish99_ex3_r3_093] (Eterna round: R96, puzzle: Exclusion 4) | 12.9 | 35.1 | 16.5 |  |  |  |
| UUUCUGUGAGGAUAUCAGUAGUAAAUAAAUAAAAUUACUACUGAGAAGGCACAUGAGGAUCACCCAUGUUCCUU [salish99_ex3_r3_093] (puzzle: Exclusion 4) |  |  |  |  | 13.1 |  |
| UUUGGGCCUGUGAGGAUAUCGGGUUUGAAAGGGCCCGAGAAGGCACAUGAGGAUCACCCAUGUAAGGGCCCGGG [-32.7, -30.6 kcal, A 23%, 5a-5abis] (Eterna round: R97, puzzle: Brourd's mod of Exclusion 4) |  | 17.3 | 19.5 |  |  |  |
| UUUGGUUUGCGAGGAUAUGCUUUUAGUAAGUUAGCAGAAGGCGCGUUACAUAGAACCUCUUGUUACAUGAGGAUCACCCAUGUU [JR_ExcNG1_Sub037] (Eterna round: R96, puzzle: Exclusion NG 1) | 77.3 |  |  |  |  |  |
| UUUUAACAUGAGGAUCACCCAUGUGAGGAUAUCGAAAUUUAUAUUAAUAUUAAUAUUUCGAGAAGGCACAUUUU [JMF 25] (puzzle: Exclusion 1) |  |  |  |  | 125 |  |
| UUUUAACAUGAGGAUCACCCAUGUGAGGAUAUCGAAAUUUAUAUUAAUAUUAAUUAAUCGAGAAGGCACAUUUU [JMF 28] (puzzle: Exclusion 1) |  |  |  |  | 97.4 |  |
| UUUUAACAUGAGGAUCACCCAUGUGAGGAUAUCGAAAUUUAUAUUAAUAUUAUUAUAACGAGAAGGCACAUUUU [JMF 39] (puzzle: Exclusion 1) |  |  |  |  | 62.2 |  |
| UUUUAACAUGAGGAUCACCCAUGUGAGGAUAUCGAAAUUUAUAUUAAUAUUAUUUAUACGAGAAGGCACAUUUU [JMF 46] (puzzle: Exclusion 1) |  |  |  |  | 64.9 |  |
| UUUUAACAUGAGGAUCACCCAUGUGAGGAUAUCGAAAUUUAUAUUUAUAUUAAUAUAACGAGAAGGCACAUUUU [JMF 79] (puzzle: Exclusion 1) |  |  |  |  | 58.2 |  |
